From patent publication US20110059095A1
Read-outs that look alike come from different tables or passages of the source. Each block holds one substance with its values, some of them ahead of it.

Tests used:
[1] = molecular target: full length human PAR-2 (human) (UniProt P55085); test: cell-based or functional assay
[2] = molecular target: full length mouse PAR-2 (mouse) (UniProt P55086); test: cell-based or functional assay
[3] = molecular target: monkey PAR-2 (monkey); test: cell-based or functional assay
[4] = molecular target: C-terminal biotinylated human PAR-2 14-mer peptide SEQ ID NO:884 (…, wild-type) (human); test: BLI Exp2
C-terminal biotinylated human PAR-2 14-mer peptide SEQ ID NO:884 (…, wild-type) (human), sequence (peptide, as listed by the source): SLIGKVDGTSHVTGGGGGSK

[5] = molecular target: C-terminal biotinylated human PAR-2 14-mer peptide SEQ ID NO:885 (Val-42 to Ala) (human); test: BLI Exp2
C-terminal biotinylated human PAR-2 14-mer peptide SEQ ID NO:885 (Val-42 to Ala) (human), sequence (peptide, as listed by the source): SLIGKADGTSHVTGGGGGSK

[6] = molecular target: C-terminal biotinylated human PAR-2 14-mer peptide SEQ ID NO:886 (Asp-43 to Ala) (human); test: BLI Exp2
C-terminal biotinylated human PAR-2 14-mer peptide SEQ ID NO:886 (Asp-43 to Ala) (human), sequence (peptide, as listed by the source): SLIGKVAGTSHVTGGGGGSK

[7] = molecular target: C-terminal biotinylated human PAR-2 14-mer peptide SEQ ID NO:887 (Val-42 and Asp-43 to Ala) (human); test: BLI Exp2
C-terminal biotinylated human PAR-2 14-mer peptide SEQ ID NO:887 (Val-42 and Asp-43 to Ala) (human), sequence (peptide, as listed by the source): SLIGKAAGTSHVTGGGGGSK

[8] = molecular target: Peptide B (human PAR-2), unbiotinylated (Human); test: SPR, antibody captured
[9] = molecular target: T1, Peptide B (human PAR-2), C-terminal biotinylated (Human); test: SPR, peptide immobilized
T1 sequence (peptide, C-terminal biotin via G4S linker): SLIGKVDGTSHVTGGGGGS

[10] = molecular target: T2, Peptide B (human PAR-2), N-terminal biotinylated (Human); test: SPR, peptide immobilized
T2 sequence (peptide, N-terminal biotin via G4S linker): GGGGSSLIGKVDGTSHVTG

[11] = molecular target: T1, Peptide B (human PAR-2), C-terminal biotinylated (Human); test: SPR, peptide immobilized; remark: listed apart in the source
[12] = molecular target: full length human PAR-2 (human) (UniProt P55085); test: cell ELISA, 10 ug/ml antibody

full length human PAR-2 (human), sequence (P55085 26-397 G138A limits assumed): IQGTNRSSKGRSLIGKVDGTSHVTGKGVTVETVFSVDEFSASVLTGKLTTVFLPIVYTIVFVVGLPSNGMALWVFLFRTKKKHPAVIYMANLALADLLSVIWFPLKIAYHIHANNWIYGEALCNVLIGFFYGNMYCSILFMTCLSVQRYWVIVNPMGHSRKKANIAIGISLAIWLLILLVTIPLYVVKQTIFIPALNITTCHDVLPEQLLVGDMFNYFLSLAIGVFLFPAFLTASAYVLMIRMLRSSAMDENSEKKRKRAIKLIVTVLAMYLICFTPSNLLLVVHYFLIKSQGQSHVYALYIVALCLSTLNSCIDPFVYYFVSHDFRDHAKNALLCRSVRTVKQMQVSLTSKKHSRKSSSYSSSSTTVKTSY
Human Kallikrein 5, sequence (Q9Y337 67-293 limits assumed): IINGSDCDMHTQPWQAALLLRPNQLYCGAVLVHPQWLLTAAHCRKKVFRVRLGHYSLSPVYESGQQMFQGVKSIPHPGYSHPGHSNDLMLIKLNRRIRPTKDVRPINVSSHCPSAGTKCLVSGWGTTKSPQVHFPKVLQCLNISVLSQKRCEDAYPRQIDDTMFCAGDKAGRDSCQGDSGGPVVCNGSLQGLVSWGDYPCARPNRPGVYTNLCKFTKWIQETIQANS
full length mouse PAR-2 (mouse), sequence (P55086 other isoform, or with tags, fused parts or gaps limits assumed): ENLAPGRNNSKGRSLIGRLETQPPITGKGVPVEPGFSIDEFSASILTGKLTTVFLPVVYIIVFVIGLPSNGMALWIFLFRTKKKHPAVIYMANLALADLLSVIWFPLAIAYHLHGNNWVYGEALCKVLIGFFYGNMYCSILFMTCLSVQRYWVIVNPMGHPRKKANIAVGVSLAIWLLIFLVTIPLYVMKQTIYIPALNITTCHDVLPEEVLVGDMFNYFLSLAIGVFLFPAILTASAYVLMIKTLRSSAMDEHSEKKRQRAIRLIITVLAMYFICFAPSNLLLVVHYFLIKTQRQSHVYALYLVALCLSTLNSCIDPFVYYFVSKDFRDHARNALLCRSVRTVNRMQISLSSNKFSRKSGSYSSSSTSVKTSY

Substance: Comparator 2, antibody having the heavy and light chain variable regions of the antibody referred to as Sam-11 (Molino et al. 1998)
% Rel Binding [4]: 100%
% Rel T1/2 [4]: 100%
% Rel Binding [5]: 120%
% Rel T1/2 [5]: 159%
% Rel Binding [6]: 88%
% Rel T1/2 [6]: 27%
% Rel Binding [7]: 87%
% Rel T1/2 [7]: 27%

Substance: Human Factor Xa (from UniProt P00742 41-488) (enzyme)
EC50 of activator, NF-kB-luciferase [1]: 0.0463 µM
EC50 of activator, NF-kB-luciferase [2]: 0.0787 µM

Substance: Human Kallikrein 5 (from UniProt Q9Y337 67-293) (enzyme)
EC50 of activator, NF-kB-luciferase [1]: 0.028 µM
EC50 of activator, NF-kB-luciferase [3]: 0.0168 µM

Substance: Non-Specific Control (non-PAR-2 specific control antibody)
IC50, calcium mobilization FLIPR, 100 nM Trypsin [1]: > 1 µM

Substance: Tryptase (Table 22) (enzyme)
EC50 of activator, NF-kB-luciferase [1]: 0.0611 µM

The remaining lines, values ahead:

EC50 of activator, NF-kB-luciferase [1]: 0.0272 µM
EC50 of activator, NF-kB-luciferase [2]: 0.0463 µM
EC50 of activator, NF-kB-luciferase [3]: 0.0582 µM
Substance: Bovine Factor Xa (from UniProt P00743 41-492) (enzyme)

EC50 of activator, NF-kB-luciferase [3]: 0.0024 µM
Substance: Human Pancreatic Trypsin (enzyme)

Kd [8]: 0.149 µM
T1/2 [8]: 0.1 min
Kd [9]: 0.00099 µM
T1/2 [9]: 19 min
Kd [10]: 0.000279 µM
T1/2 [10]: 32 min
Kd [11]: 0.000935 µM
T1/2 [11]: 14 min
A450 ratio (293/D9/hPAR-2rec to 293/D9 cells) [12]: 1.49
Substance: Sam11, commercially available mouse monoclonal antibody that binds human PAR-2 (Santa Cruz Biotechnology)
